Assay results published in patent US9040017B2, “Liver-receptor imaging injection, dispensing method and pharmaceutical composition thereof” (INSTITUTE OF NUCLEAR ENERGY RESEARCH ATOMIC ENERGY COUNCIL, …, priority 2010, dated 2015).

Assay: Radiochemical purity before and after autoclave sterilization
Assay type: physicochemical
Conditions: DTPA-hexa-lactoside autoclaved in a lyophilized vial, then 111In radiolabel
Procedure: To test whether ^111In radiolabel of DTPA-hexa-lactoside was affected by autoclave sterilization, DTPA-hexa-lactoside was put into a lyophilized vial to set in an autoclave for sterilizing. After that, ^111In radiolabel proceeded. […] The comparison of radiochemical purity between before and after autoclave sterilization was illustrated in FIG. 2. First, a developing solvent of radio-ITLC of 10 mM sodium citrate buffer (about pH 5) were prepared as follows: 0.13 g citric acid monohydrate and 0.11 g trisodium citrate dehydrate were weighed precisely to dissolve in 100 ml water for injection. Then 10 ml of the solution were added in the developing tank as a developing solvent. The position away from the bottom of a TLC-SG film about 2 cm was marked with a pencil as the origin while the position away from the bottom about 9 cm was marked as the end. A few samples were taken by a micropipette to drop at the origin. Then, the TLC-SG film was put in a developing tank containing a buffer (about pH 5) of 10 mM sodium citrate to develop. The film were taken out to dry in the fume cabinet while the liquid level reached the end. […] The calculating formula is as follows: Radiochemical purity (%)=A/B×100%, wherein A refers to a calculated area peak of ^111In-DTPA-hexa-lactoside (Rf=0.0-0.1), and B refers to calculated area of all peaks.

DTPA derivatives of AHA-Asp[DCM-Lys(ah-Lac)3]2 [DTPA-hexa-lactoside]
radiochemical purity of 111In after autoclave sterilization: < 90%
